The values below come from US20220016130A1 (MAYO FOUNDATION FOR MEDICAL EDUCATION AND RESEARCH, published 2022).

The target in experiment [1] is T1, BRD3 (human, UniProt Q15059 1-726).
T1 construct: One entry covers endogenous and FLAG-tagged full-length BRD3; also called FLAG-BRD3; Flag-BRD3
Nature of the experiment: co-IP, ectopic in 293T and endogenous in LNCaP cells. The method, then:
(§1) To immunoprecipitate the ectopically expressed FLAG-tagged proteins, transfected cells were lysed 24 hours post-transfection in BC100 buffer. The whole-cell lysates were immunoprecipitated with the monoclonal anti-FLAG antibody-conjugated M2 agarose beads (Sigma-Aldrich) at 4° C. overnight. After three washes with lysis buffer, followed by two washes with BC100 buffer, the bound proteins were eluted using FLAG-Peptide (Sigma-Aldrich) prepared in BC100 for 3 hours at 4° C. The eluted protein sample was resolved by SDS-PAGE. To immunoprecipitate the endogenous proteins, cells were lysed with 1× cell lysis buffer (Cell Signaling Technology), and the lysate was centrifuged. The supernatant was precleared with protein A/G beads (Sigma-Aldrich) and incubated with the indicated antibody and protein A/G beads at 4° C. overnight. Beads were washed five times with lysis buffer and resuspended in sample buffer and analyzed by SDS-PAGE.

The target in experiment [2] is T2, BRD4 SBC motif-deleted mutant (human, UniProt O60885 1-1362, limits assumed).
T2 construct: The deleted residues are not numbered in the text; also called FLAG-BRD4 mutant; not shown: FLAG tag
The experiment in a line: co-IP (anti-FLAG) in 293T cells.

Experiment [3] has as its target T3, BRD3 SBC motif-deleted mutant (human, UniProt Q15059 1-726, limits assumed).
T3 construct: The deleted residues are not numbered in the text; also called FLAG-BRD3 mutant; not shown: FLAG tag
Nature of the experiment: co-IP (anti-FLAG) in 293T cells.

Experiment [4] has as its target T4, BRD2 SBC motif-deleted mutant (human, UniProt P25440 1-801, limits assumed).
T4 construct: The deleted residues are not numbered in the text; also called FLAG-BRD2 mutant; not shown: FLAG tag
Nature of the experiment: co-IP (anti-FLAG) in 293T cells.

The target of experiment [5] is T5, BRD2 (human, UniProt P25440 1-801).
T5 construct: One entry covers endogenous and FLAG-tagged full-length BRD2; also called FLAG-BRD2; Flag-BRD2
Nature of the experiment: figure legend title; yeast two-hybrid and co-IP. The method, then: (§2) A total of 2×10⁷ independent clones were screened by growth in deficient medium and X-gal staining. The positive clones were subsequently retested in fresh yeast cells, and the identities of prey were determined with interaction sequence tags (ISTs) obtained by DNA sequencing. The reading frame was verified.
as §1

Experiment [6] has as its target T6, SRC-3 (human, UniProt Q9Y6Q9 2-1424, limits assumed).
T6 construct: Positive clone of the yeast two-hybrid screen
The experiment in a line: yeast two-hybrid screen, human fetal brain cDNA library. The procedure: as §2

Experiment [7] has as its target T7, DEK (human, UniProt P35659 2-375, limits assumed).
T7 construct: Positive clone of the yeast two-hybrid screen
T7 sequence (looked up): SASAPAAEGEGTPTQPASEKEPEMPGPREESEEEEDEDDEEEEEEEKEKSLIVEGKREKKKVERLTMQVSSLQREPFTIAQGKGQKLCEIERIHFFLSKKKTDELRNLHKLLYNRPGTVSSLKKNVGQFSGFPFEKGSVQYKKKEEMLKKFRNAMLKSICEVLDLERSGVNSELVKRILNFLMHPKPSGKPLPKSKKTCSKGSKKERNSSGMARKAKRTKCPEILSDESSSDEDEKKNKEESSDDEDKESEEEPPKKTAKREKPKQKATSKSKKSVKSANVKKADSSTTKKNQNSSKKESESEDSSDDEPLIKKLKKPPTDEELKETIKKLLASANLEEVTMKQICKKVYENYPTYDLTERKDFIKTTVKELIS
The description is as above. The method, then: as §2

B1: SPOP (speckle-type POZ polypeptide), wild-type (other, human, UniProt O43791 1-374, looked up)
chain: MSRVPSPPPPAEMSSGPVAESWCYTQIKVVKFSYMWTINNFSFCREEMGEVIKSSTFSSGANDKLKWCLRVNPKGLDEESKDYLSLYLLLVSCPKSEVRAKFKFSILNAKGEETKAMESQRAYRFVQGKDWGFKKFIRRDFLLDEANGLLPDDKLTLFCEVSVVQDSVNISGQNTMNMVKVPECRLADELGGLWENSRFTDCCLCVAGQEFQAHKAILAARSPVFSAMFEHEMEESKKNRVEINDVEPEVFKEMMCFIYTGKAPNLDKMADDLLAAADKYALERLKVMCEDALCSNLSVENAAEILILADLHSADQLKTQAVDFINYHASDVLETSGWKSMVVSHPHLVAEAYRSLASAQCPFLGPPRKRLKQS
notes: also called SPOP-WT; wild-type SPOP
On to B1, for which the binding result in experiment [1] is on record as “binds”; in experiment [2], “no binding”; in experiment [3] it was “no binding”; in experiment [4] it was “no binding”; in experiment [5], “binds”; in experiment [6] it was “binds”. Further, in experiment [7], the binding result is on record as “binds”.
